{"source": "the supplement of paper PMC9170038", "test_system": "MS2 coat protein", "test": "apparent KD of MS2 coat protein; designed switch direction (-1 OFF switch, 1 ON switch): -1; higher = weaker reporter binding", "procedure,_shortened": "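For each design, the apparent KD is the median over clusters of curves fitted to normalised cluster fluorescence. Clusters held RNA switches with common flanks, transcribed on Illumina chips by stalled E. coli RNA polymerase. These were titrated with SNAP-549-labelled MS2 coat protein, doubling from 0.7 or 1.5 nM to 3 µM, without input, with 200 uM small-molecule ligand, or with an oligonucleotide input.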", "key": {"[1]": {"conditions": "Eterna round: R95, input ligand: microRNA oligo, concentration not stated"}, "[2]": {"conditions": "Eterna round: R95, input ligand: FMN 200 uM"}, "[3]": {"conditions": "Eterna round: R95, input ligand: none"}, "[4]": {"conditions": "input ligand: microRNA oligo, concentration not stated"}}}
{"sequence": "AAGGAUAGAGGAUAUGCAUAGAUACAGAUUCAUGUAGAACUACAUGAGGAUCACCCAUGUAGAAGGCUAUCCUA [Fiskers Ex 2 - 5] (puzzle: Exclusion 2)", "values": [{"measurement": "apparent KD of MS2 coat protein", "setting": "[1]", "result": 17.3, "unit": "nM"}]}
{"sequence": "UGAGCUUCAGGAUAUACGUGACGACCGUGAGGUCGAAGGUUACAUGAGGAUCACCCAUGUAGAAGGGAAGUUCU [Mat - Exclusion 2 - JL Mod - D27] (Eterna round: R97, puzzle: Exclusion 2)", "values": [{"measurement": "apparent KD of MS2 coat protein", "setting": "input ligand: FMN 200 uM", "result": 70.8, "unit": "nM"}, {"measurement": "apparent KD of MS2 coat protein", "setting": "input ligand: none", "result": 27.5, "unit": "nM"}]}
{"sequence": "GUUAAACAUGAGGAUCACCCAUGUAAGGAUAUGCUGAGGUAGAGAUGAAGUGAAUGAAGCAGAAGGUACAAAUG [Mat - Mod of JL D64] (puzzle: Exclusion 1)", "values": [{"measurement": "apparent KD of MS2 coat protein", "setting": "[2]", "result": 51.5, "unit": "nM"}, {"measurement": "apparent KD of MS2 coat protein", "setting": "[1]", "result": 83.2, "unit": "nM"}, {"measurement": "apparent KD of MS2 coat protein", "setting": "[3]", "result": 113, "unit": "nM"}]}
{"sequence": "UAGGUGCAAGGAUAUCGCCCGGAAGACAUGAGGAUCACCCAUGUACCGGGUGAGUAUGGGCGAGAAGGUGCAUAUU [Usergete] (puzzle: Exclusion 5)", "values": [{"measurement": "apparent KD of MS2 coat protein", "setting": "[2]", "result": 298, "unit": "nM"}, {"measurement": "apparent KD of MS2 coat protein", "setting": "[1]", "result": 75.9, "unit": "nM"}, {"measurement": "apparent KD of MS2 coat protein", "setting": "[3]", "result": 92, "unit": "nM"}]}
{"sequence": "GACAGGGCAGGAUAUCGAGAUCCGCACAUGAGGAUCACCCAUGUUCGGUCGAAAGACCGACGAGAAGGGCCGUGUC [Omei Ex5 E5] (Eterna round: R97, puzzle: Exclusion 5)", "values": [{"measurement": "apparent KD of MS2 coat protein", "setting": "input ligand: FMN 200 uM", "result": 651, "unit": "nM"}, {"measurement": "apparent KD of MS2 coat protein", "setting": "input ligand: none", "result": 869, "unit": "nM"}]}
{"sequence": "UGUCUCCUCGUCAGGAUAUUUCGUUGUGCAGACUGAAAGAAGGGACAUGAGGAUCACCCAUGUACCUCGUCGGU [Eternabot (L2) Solution 98] (Eterna round: R97, puzzle: Brourd's mod of Exclusion 4)", "values": [{"measurement": "apparent KD of MS2 coat protein", "setting": "input ligand: FMN 200 uM", "result": 22.3, "unit": "nM"}, {"measurement": "apparent KD of MS2 coat protein", "setting": "input ligand: none", "result": 16.9, "unit": "nM"}]}
{"sequence": "UGAAGGUCAGGAUAUGAGUCUAUCUGACGCAGACAUAGACAUUAGAAGGGACAUGAGGAUCACCCAUGUGGGAC [Eternabot (L1) Solution 29] (Eterna round: R97, puzzle: Exclusion 4)", "values": [{"measurement": "apparent KD of MS2 coat protein", "setting": "input ligand: FMN 200 uM", "result": 106, "unit": "nM"}, {"measurement": "apparent KD of MS2 coat protein", "setting": "input ligand: none", "result": 84.8, "unit": "nM"}]}
{"sequence": "AAUACGUGAGGAUAUAGAUGAAGGAACUUGAGGAUCACCCAAGUGGCGUCUAGUUCCUGGCUAGAAGGCACAAAUA [Biedbe] (Eterna round: R97, puzzle: Exclusion 5)", "values": [{"measurement": "apparent KD of MS2 coat protein", "setting": "input ligand: FMN 200 uM", "result": 263, "unit": "nM"}, {"measurement": "apparent KD of MS2 coat protein", "setting": "input ligand: none", "result": 326, "unit": "nM"}]}
{"sequence": "UAUUACAAGCGAGAUCCUAACAUGAGGAUCACCCAUGUGCUCGUCUCAUAUAGGACUAUCACGAAAGUGAUAGUCCA [Level Boss var2-01] (puzzle: Sensor v3, turn-off variant 1)", "values": [{"measurement": "apparent KD of MS2 coat protein", "setting": "[2]", "result": 21.5, "unit": "nM"}, {"measurement": "apparent KD of MS2 coat protein", "setting": "[1]", "result": 140, "unit": "nM"}, {"measurement": "apparent KD of MS2 coat protein", "setting": "[3]", "result": 15.2, "unit": "nM"}]}
{"sequence": "GAAUAGGCAGGAUAUACAUGAGGAUCACCCAUGUGCAACCGAAAGGAACGUCCGAAAGGUAGAAGGGCCUAAAC [ChP 13.04.2015 #9] (puzzle: Exclusion 3)", "values": [{"measurement": "apparent KD of MS2 coat protein", "setting": "[2]", "result": 73.7, "unit": "nM"}, {"measurement": "apparent KD of MS2 coat protein", "setting": "[1]", "result": 17.9, "unit": "nM"}, {"measurement": "apparent KD of MS2 coat protein", "setting": "[3]", "result": 19.6, "unit": "nM"}]}
{"sequence": "AGCAUGUGAGGAUAUGCGGACUCCGGUAAAGCUGGAGUCCAGUAGAAGGCACAUGAGGAUCACCCAUGUGAGAU [Uszadi] (Eterna round: R96, puzzle: Exclusion 4)", "values": [{"measurement": "apparent KD of MS2 coat protein", "setting": "input ligand: FMN 200 uM", "result": 317, "unit": "nM"}, {"measurement": "apparent KD of MS2 coat protein", "setting": "[4]", "result": 53.3, "unit": "nM"}, {"measurement": "apparent KD of MS2 coat protein", "setting": "input ligand: none", "result": 63.2, "unit": "nM"}]}
{"sequence": "AAAAAAAAGAUAGGAUAUUAGAAAAAAAUGGUGAUAGAGACAUGAGGAUCACCCAUGUAAAAAAAUAAGAAGGGUCAAAAAAAA [AK ExNG2-V2-5] (Eterna round: R96, puzzle: Exclusion NG 2)", "values": [{"measurement": "apparent KD of MS2 coat protein", "setting": "input ligand: FMN 200 uM", "result": 322, "unit": "nM"}, {"measurement": "apparent KD of MS2 coat protein", "setting": "[4]", "result": 298, "unit": "nM"}, {"measurement": "apparent KD of MS2 coat protein", "setting": "input ligand: none", "result": 362, "unit": "nM"}]}
{"sequence": "AACUUCUGAGGAUAUACAUAGAUUUACAUGAGGAUCACCCAUGUUCCUCUUUGUAUAAAUGUAGAAGGCAGAAGAA [Mat - Exclusion 5 - JL Mod - D72] (Eterna round: R97, puzzle: Exclusion 5)", "values": [{"measurement": "apparent KD of MS2 coat protein", "setting": "input ligand: FMN 200 uM", "result": 349, "unit": "nM"}, {"measurement": "apparent KD of MS2 coat protein", "setting": "input ligand: none", "result": 203, "unit": "nM"}]}
{"sequence": "CAGCUGUCAGGAUAUCGUGCAUACAACGAAAGUUCUAUGUGCGAGAAGGGACAUGAGGAUCACCCAUGUUUACG [Omei Ex4 A24] (Eterna round: R97, puzzle: Exclusion 4)", "values": [{"measurement": "apparent KD of MS2 coat protein", "setting": "input ligand: FMN 200 uM", "result": 48, "unit": "nM"}, {"measurement": "apparent KD of MS2 coat protein", "setting": "input ligand: none", "result": 28.6, "unit": "nM"}]}
{"sequence": "UAUAUAUAGUAAGGAUAUGUAUUUAUGUUAUAAACAGAAGGUACUGACAUGAGGAUCACCCAUGUUUUAGUGUGGGCAUGUAGA [JMF's solution 16] (Eterna round: R96, puzzle: Exclusion NG 1)", "values": [{"measurement": "apparent KD of MS2 coat protein", "setting": "[4]", "result": 76.3, "unit": "nM"}]}
{"sequence": "GGACUGAAGCUAGGAUAUCCCGUGUGAUCACGAGGAGAAGGAGCGCACGGGUAGUCAACAUGAGGAUCACCCAUGUACAGUCCA [Laditiqu] (Eterna round: R96, puzzle: Exclusion NG 1)", "values": [{"measurement": "apparent KD of MS2 coat protein", "setting": "input ligand: FMN 200 uM", "result": 50.1, "unit": "nM"}, {"measurement": "apparent KD of MS2 coat protein", "setting": "[4]", "result": 15.4, "unit": "nM"}, {"measurement": "apparent KD of MS2 coat protein", "setting": "input ligand: none", "result": 20.6, "unit": "nM"}]}
{"sequence": "UAUUAGCAAGUGAGAUCCCACAUGAGGAUCACCCAUGUGCUCGUCUUAUAAGGUACUGUGACGAAAGUCACGGUACC [Sensor 3, v1 - 91 v1] (Eterna round: R97, puzzle: Sensor, turn-off variant 1)", "values": [{"measurement": "apparent KD of MS2 coat protein", "setting": "input ligand: FMN 200 uM", "result": 56.2, "unit": "nM"}, {"measurement": "apparent KD of MS2 coat protein", "setting": "input ligand: none", "result": 47.6, "unit": "nM"}]}
{"sequence": "AAACGGCAUAGAGGAUAUGCUUACCUGGGUCGUCUUCAAACAUGAGGAUCACCCAUGUAGUCGACGCAGAAGGUUAUCAAAGCC [ExNG2 2nd] (Eterna round: R96, puzzle: Exclusion NG 2)", "values": [{"measurement": "apparent KD of MS2 coat protein", "setting": "input ligand: FMN 200 uM", "result": 16, "unit": "nM"}, {"measurement": "apparent KD of MS2 coat protein", "setting": "[4]", "result": 12.2, "unit": "nM"}, {"measurement": "apparent KD of MS2 coat protein", "setting": "input ligand: none", "result": 17.9, "unit": "nM"}]}
{"sequence": "GUUUCACAUGAGGAUCACCCAUGUGAGGAUAUCAAUUUGUUAACCGUAGUUAAUAGAUUGAGAAGGCGCGUGAU [JRxlusion 2- Jieux - Exclusion 1] (Eterna round: R97, puzzle: Exclusion 1)", "values": [{"measurement": "apparent KD of MS2 coat protein", "setting": "input ligand: FMN 200 uM", "result": 64.5, "unit": "nM"}, {"measurement": "apparent KD of MS2 coat protein", "setting": "input ligand: none", "result": 49, "unit": "nM"}]}
{"sequence": "GUAGAGUCAGGAUAUACAAGAUCGAAAGAUCGGCGAUCCAUACAUGAGGAUCACCCAUGUAGAAGGGACUCUAC [Eli x2 4.003] (Eterna round: R97, puzzle: Exclusion 2)", "values": [{"measurement": "apparent KD of MS2 coat protein", "setting": "input ligand: FMN 200 uM", "result": 560, "unit": "nM"}, {"measurement": "apparent KD of MS2 coat protein", "setting": "input ligand: none", "result": 33.4, "unit": "nM"}]}
{"sequence": "CCAGGCAGUGUGAGGAUAUGCUGGUGGAUACAUCAGCAGAAGGCACAUGAGGAUCACCCAUGUGAAGAGCUUGG [Mat - Exclusion 4 - JL Mod - D99] (puzzle: Brourd's mod of Exclusion 4)", "values": [{"measurement": "apparent KD of MS2 coat protein", "setting": "[2]", "result": 136, "unit": "nM"}, {"measurement": "apparent KD of MS2 coat protein", "setting": "[1]", "result": 19, "unit": "nM"}, {"measurement": "apparent KD of MS2 coat protein", "setting": "[3]", "result": 20.5, "unit": "nM"}]}
{"sequence": "UUAAGUAUAGAGGAUAUAUAAUAUUUAUUAACUAUAGAAGGCUAUACAUGAGGAUCACCCAUGUAUAUUGGGAU [JR_Ex6_Sub067] (Eterna round: R97, puzzle: Exclusion 6)", "values": [{"measurement": "apparent KD of MS2 coat protein", "setting": "input ligand: FMN 200 uM", "result": 59.1, "unit": "nM"}, {"measurement": "apparent KD of MS2 coat protein", "setting": "input ligand: none", "result": 41, "unit": "nM"}]}
{"sequence": "GGGUAGUGAGGAUAUCUUGGCAAACCCGAACCUGUCAGCCAAGAGAAGGCACUUGAGGAUCACCCAAGUACAGG [Raeratti] (Eterna round: R97, puzzle: Exclusion 4)", "values": [{"measurement": "apparent KD of MS2 coat protein", "setting": "input ligand: FMN 200 uM", "result": 88.7, "unit": "nM"}, {"measurement": "apparent KD of MS2 coat protein", "setting": "input ligand: none", "result": 26.8, "unit": "nM"}]}
{"sequence": "CUCGGGAGUCAGGAUAUCGGCACUUAUCAAUCACGAGAAGGGACGACAUGAGGAUCACCCAUGUGGGAAAAGAA [Ersoar] (puzzle: Exclusion 6)", "values": [{"measurement": "apparent KD of MS2 coat protein", "setting": "[2]", "result": 252, "unit": "nM"}, {"measurement": "apparent KD of MS2 coat protein", "setting": "[1]", "result": 89.4, "unit": "nM"}, {"measurement": "apparent KD of MS2 coat protein", "setting": "[3]", "result": 84.7, "unit": "nM"}]}
{"sequence": "UUAGUGUAAGGAUAUGCAAACCACGGAAAUAAAACGUGGAGGUAGAAGGUACAUGAGGAUCACCCAUGUUAAAC [Mod of Anonveat 25 - Jieux - Exclusion 4] (Eterna round: R97, puzzle: Exclusion 4)", "values": [{"measurement": "apparent KD of MS2 coat protein", "setting": "input ligand: FMN 200 uM", "result": 34, "unit": "nM"}, {"measurement": "apparent KD of MS2 coat protein", "setting": "input ligand: none", "result": 20.2, "unit": "nM"}]}
